Data set [1] addresses dSpRY (catalytically inactive SpRY Cas9) (Streptococcus pyogenes) (UniProt Q99ZW2). Description: single-molecule AuRBT (baseline twist shift, Langmuir fit). The settings on record: effective Kd for off-target binding on the tether; RNP with sgRNA3; EMSA: 20 mM HEPES pH 7.5, 100 mM KCl, 10 mM MgCl2, 1% glycerol, 0.5 mM DTT (37 C for plasmid EMSA); footprinting: 20 mM Tris pH 7.9, 24 mM KCl, 5 mM MgCl2 …. (In general: Mobility shift assays separate free from complexed probe on a gel.)

The target is the same in data set [2]. Description: single-molecule AuRBT (hyperbolic fit of kC-I vs [RNP]). To be noted: EMSA: 20 mM HEPES pH 7.5, 100 mM KCl, 10 mM MgCl2, 1% glycerol, 0.5 mM DTT (37 C for plasmid EMSA); footprinting: 20 mM Tris pH 7.9, 24 mM KCl, 5 mM MgCl2 ….
Data set [3] has as its target dCas9 (catalytically inactive SpyCas9) D10A;H840A (Streptococcus pyogenes) (UniProt Q99ZW2). Description: single-molecule AuRBT (kC-I linear, no saturation). To be noted: initial binding Kd,init; >1 uM proposed from literature; R-loop forms; EMSA: 20 mM HEPES pH 7.5, 100 mM KCl, 10 mM MgCl2, 1% glycerol, 0.5 mM DTT (37 C for plasmid EMSA); footprinting: 20 mM Tris pH 7.9, 24 mM KCl, 5 mM MgCl2 ….

Data set [4] has as its target dSpRY (catalytically inactive SpRY Cas9) (Streptococcus pyogenes) (UniProt Q99ZW2). Description: EMSA. The settings on record: 40x plasmid competitor; 100 nM RNP, 10 nM DNA; EMSA: 20 mM HEPES pH 7.5, 100 mM KCl, 10 mM MgCl2, 1% glycerol, 0.5 mM DTT (37 C for plasmid EMSA); footprinting: 20 mM Tris pH 7.9, 24 mM KCl, 5 mM MgCl2 ….

In general, Kd refers to the equilibrium constant for the complex coming apart.

Take “GGCUGCGUAUUUCUACUCUGUUGUUUUAGAGCUAGAAAUAGCAAGUUAAAAUAAGGCUAGUCCGUUAUCAACUUGAAAAAGUGGCACCGAGUCGGUGCUUCG / GTCATTGTCGCGAAGTGCAGCGAGATCGCGTTTGTACTCCAAACAGAGTAGAAATACGCAGAGCAGCGATTTCTCGTGTGCAGACA / CGAAGCACCGACTCGGTGCCACTTTTTCAAGTTGATAACGGACTAGCCTTATTTTAACTTGCTATTTCTAGCTCTAAAACAACAGAGTAGAAATACGCAGCC [sgRNA3 + Target1 NGG DNA tether]”: the results for the Kd in data set [1], in data set [2] and in data set [3] were 15 nM, 10 nM and more than 80 nM, respectively.

In turn, “GGGACGCAUAAAGAUGAGACAAGUUUUAGAGCUAGAAAUAGCAAGUUAAAAUAAGGCUAGUCCGUUAUCAACUUGAAAAAGUGGCACCGAGUCGGUGCUUCG / CGCTCATGCTGACGCATAAAGATGAGACAATGGCGATTACAGTACGTGCG / CGCACGTACTGTAATCGCCATTGTCTCATCTTTATGCGTCAGCATGAGCG [sgRNA2 + matched target duplex (0-20 bp)]” registered a binding signal in data set [4] of 2 % bound.

For “GGGACGCAUAAAGAUGAGACAAGUUUUAGAGCUAGAAAUAGCAAGUUAAAAUAAGGCUAGUCCGUUAUCAACUUGAAAAAGUGGCACCGAGUCGGUGCUUCG / CGCTCATGCTGACGCATAAAGATGAGAGTTTGGCGATTACAGTACGTGCG / CGCACGTACTGTAATCGCCATTGTCTCATCTTTATGCGTCAGCATGAGCG [sgRNA2 + target duplex with MM bubble next to PAM (3-20 bp)]”, the binding signal in data set [4] worked out at 29 % bound.

(Values after paper PMC12258621.)
